The experiment deals with CD33 (UniProt P20138 18-364, limits assumed). Nature of the experiment: cell-based or functional assay.

Where only a bound is given, the exact number is not on record here.

Sequence of CD33 (P20138 18-364 limits assumed): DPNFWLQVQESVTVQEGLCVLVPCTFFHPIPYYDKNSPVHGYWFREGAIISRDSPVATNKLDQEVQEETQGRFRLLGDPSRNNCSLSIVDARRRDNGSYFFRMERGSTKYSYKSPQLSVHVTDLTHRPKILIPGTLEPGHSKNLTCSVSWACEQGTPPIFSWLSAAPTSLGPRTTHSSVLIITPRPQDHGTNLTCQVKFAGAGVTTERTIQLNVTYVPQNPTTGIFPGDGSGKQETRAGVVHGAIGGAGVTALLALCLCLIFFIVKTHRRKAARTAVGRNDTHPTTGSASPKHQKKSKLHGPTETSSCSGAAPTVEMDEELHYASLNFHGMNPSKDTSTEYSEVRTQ

B1: AMV564 (bispecific antibody)
chain: DIQMTQSPSSLSASVGDRVTITCRSSTGAVTTSNYANWVQQKPGKAPKALIGGTNKRAPGVPSRFSGSLIGDKATLTISSLQPEDFATYYCALWYSNLWVFGQGTKVEIKGGSGGSQVQLVQSGAEVKKPGASVKVSCKASGYTFTSYDINWVRQAPGQGLEWMGWMNPNSGNTGFAQKFQGRVTMTRDTSTSTVYMELSSLRSEDTAVYYCARDRANTDYSLGMDVWGQGTLVTVSSGGSGQSVLTQPPSASGTPGQRVTISCSGSRSNIGSNTVNWYQQLPGTAPKLLIYGNNQRPSGVPDRFSGSKSGTSASLAISGLQSEDEADYYCATWDDSLIGWVFGGGTKLTVLGGSGGSEVQLVESGGGLVQPGGSLRLSCAASGFTFSTYAMNWVRQAPGKGLEWVGRIRSKYNNYATYYADSVKDRFTISRDDSKNSLYLQMNSLKTEDTAVYYCARHGNFGNSYVSYFAYWGQGTLVTVSS
Turning to B1, the “proliferation of CD4+ and CD8+ T cells” value is over 2 fold.

For the origin of these results see patent US20200377596A1 (AMPHIVENA THERAPEUTICS, published 2020).
